Measurements reported in PMC8307404, “Crystal Structure-Guided Design of Bisubstrate Inhibitors and Photoluminescent Probes for Protein Kinases of the PIM Family” (Molecules, 2021).
Square brackets hold non-standard residues; d marks the D form. Peptide text beside a SMILES is read from it. * marks the point of attachment. X3 = O=C(CCCCCNCc1nc2c(sc3cc(Br)cnc32)c(=O)[nH]1)*

Legend:
Assay in all cases: Kinase profiling (radiometric filter-binding)
Assay type in all cases: biochemical
Aurora B = Aurora B (Homo sapiens, UniProt Q96GD4); details: 1 µM inhibitor, read-out: Residual activity, %
Outline: (§1)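 Human kinase, ATP (≤ KM) and test compound (1 µM final) were combined; phosphorylation was quantified by radiometric filter binding. Activity left was normalised to the control reaction without compound.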

CAMKKb = CAMKKb (Homo sapiens, UniProt Q96RR4); details: 1 µM inhibitor, read-out: Residual activity, %
Sequence of CAMKKb (Q96RR4 whole entry): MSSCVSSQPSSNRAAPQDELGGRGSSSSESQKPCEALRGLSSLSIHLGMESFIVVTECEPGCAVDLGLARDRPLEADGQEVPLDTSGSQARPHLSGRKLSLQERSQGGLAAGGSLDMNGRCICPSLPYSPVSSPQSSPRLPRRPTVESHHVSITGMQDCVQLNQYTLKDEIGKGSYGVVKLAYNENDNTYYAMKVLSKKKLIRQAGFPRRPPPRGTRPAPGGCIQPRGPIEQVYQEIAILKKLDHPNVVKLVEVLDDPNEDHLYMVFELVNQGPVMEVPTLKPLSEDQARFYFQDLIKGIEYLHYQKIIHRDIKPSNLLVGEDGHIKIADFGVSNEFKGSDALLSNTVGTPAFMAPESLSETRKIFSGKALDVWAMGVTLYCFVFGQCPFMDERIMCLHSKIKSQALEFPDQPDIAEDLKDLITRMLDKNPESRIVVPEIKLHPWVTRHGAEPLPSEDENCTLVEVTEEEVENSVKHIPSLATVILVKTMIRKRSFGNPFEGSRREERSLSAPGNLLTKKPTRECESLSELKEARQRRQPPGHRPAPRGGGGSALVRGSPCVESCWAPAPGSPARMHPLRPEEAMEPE
Outline: as §1

CK2 = CK2 (Homo sapiens, UniProt P68400); details: CK2, 1 µM inhibitor; read-out: Residual activity, %
Outline: as §1

EPH-A4 = EPH-A4 (Homo sapiens, UniProt P54764); details: EPH-A4, 1 µM inhibitor; read-out: Residual activity, %
Sequence of EPH-A4 (P54764 20-986): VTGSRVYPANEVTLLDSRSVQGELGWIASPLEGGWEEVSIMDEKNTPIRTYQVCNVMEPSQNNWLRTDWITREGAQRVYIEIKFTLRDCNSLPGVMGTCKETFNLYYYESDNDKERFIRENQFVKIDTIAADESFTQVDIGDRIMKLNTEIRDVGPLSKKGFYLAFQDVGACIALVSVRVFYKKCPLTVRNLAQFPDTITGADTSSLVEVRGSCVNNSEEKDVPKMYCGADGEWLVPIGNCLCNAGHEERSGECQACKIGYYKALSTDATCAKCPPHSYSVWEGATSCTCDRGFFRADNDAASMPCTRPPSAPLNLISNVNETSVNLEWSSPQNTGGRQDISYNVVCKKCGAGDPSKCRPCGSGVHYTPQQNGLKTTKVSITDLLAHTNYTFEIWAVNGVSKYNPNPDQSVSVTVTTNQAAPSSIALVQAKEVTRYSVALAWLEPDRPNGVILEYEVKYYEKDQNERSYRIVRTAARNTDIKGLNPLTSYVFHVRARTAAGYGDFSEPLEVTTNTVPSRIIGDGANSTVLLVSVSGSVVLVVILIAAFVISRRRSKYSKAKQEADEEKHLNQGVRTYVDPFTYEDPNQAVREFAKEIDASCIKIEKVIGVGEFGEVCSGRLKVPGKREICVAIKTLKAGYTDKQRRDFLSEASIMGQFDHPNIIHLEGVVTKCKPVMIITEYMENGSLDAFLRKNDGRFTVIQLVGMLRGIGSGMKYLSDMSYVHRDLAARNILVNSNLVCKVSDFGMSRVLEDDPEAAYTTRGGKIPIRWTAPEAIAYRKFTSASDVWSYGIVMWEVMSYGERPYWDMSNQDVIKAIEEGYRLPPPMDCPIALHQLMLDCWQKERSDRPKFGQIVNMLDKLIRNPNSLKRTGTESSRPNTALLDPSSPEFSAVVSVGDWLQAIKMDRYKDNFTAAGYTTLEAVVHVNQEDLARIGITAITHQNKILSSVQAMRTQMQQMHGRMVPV
Outline: as §1

ERK8 = target: T1, ERK8 (Homo sapiens, UniProt Q8TD08); details: ERK8, 1 µM inhibitor; read-out: Residual activity, %
T1 sequence (Q8TD08 1-544): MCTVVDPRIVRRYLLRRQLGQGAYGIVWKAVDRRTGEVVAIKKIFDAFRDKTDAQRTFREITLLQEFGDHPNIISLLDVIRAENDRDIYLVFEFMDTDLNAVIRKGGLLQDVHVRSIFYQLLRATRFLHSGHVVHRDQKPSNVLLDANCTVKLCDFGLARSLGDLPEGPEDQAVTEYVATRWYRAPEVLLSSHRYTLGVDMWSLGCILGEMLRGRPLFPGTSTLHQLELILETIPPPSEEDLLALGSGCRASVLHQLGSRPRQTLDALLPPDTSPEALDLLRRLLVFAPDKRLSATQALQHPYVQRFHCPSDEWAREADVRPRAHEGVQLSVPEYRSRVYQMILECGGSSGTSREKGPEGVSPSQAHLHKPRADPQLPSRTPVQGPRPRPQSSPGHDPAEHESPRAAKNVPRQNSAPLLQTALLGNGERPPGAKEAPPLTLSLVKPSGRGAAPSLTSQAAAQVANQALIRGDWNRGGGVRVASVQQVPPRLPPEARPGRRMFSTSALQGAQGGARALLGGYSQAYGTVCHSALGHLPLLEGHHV
Outline: as §1

HIPK3 = HIPK3 (Homo sapiens, UniProt Q9H422); details: HIPK3, 1 µM inhibitor; read-out: Residual activity, %
Outline: as §1

MARK3 = MARK3 (Homo sapiens, UniProt P27448); details: MARK3, 1 µM inhibitor; read-out: Residual activity, %
Sequence of MARK3 (P27448 whole entry): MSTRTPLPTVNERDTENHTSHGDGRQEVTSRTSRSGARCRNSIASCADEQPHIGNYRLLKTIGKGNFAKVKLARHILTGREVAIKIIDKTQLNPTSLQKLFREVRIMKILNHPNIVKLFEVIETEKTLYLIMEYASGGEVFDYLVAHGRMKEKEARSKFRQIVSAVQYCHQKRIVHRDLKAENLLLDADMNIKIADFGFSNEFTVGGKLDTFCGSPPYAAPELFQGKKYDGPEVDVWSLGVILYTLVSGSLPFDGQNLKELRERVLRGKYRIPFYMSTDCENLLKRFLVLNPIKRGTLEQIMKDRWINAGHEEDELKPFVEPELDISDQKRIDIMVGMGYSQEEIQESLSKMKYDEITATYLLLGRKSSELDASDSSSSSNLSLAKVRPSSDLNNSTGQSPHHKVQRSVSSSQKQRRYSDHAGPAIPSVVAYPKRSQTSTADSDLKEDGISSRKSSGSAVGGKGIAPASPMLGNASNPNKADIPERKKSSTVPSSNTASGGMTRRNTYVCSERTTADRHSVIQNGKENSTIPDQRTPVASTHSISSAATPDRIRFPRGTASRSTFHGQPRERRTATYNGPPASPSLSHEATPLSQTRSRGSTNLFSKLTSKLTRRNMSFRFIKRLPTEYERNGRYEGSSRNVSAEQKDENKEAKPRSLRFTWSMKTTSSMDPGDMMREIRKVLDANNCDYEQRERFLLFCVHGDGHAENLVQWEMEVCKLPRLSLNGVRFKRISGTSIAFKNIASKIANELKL
Outline: as §1

MLK3 = MLK3 (Homo sapiens, UniProt Q16584); details: MLK3, 1 µM inhibitor; read-out: Residual activity, %
Outline: as §1

MSK1 = MSK1 (Homo sapiens, UniProt O75582); details: MSK1, 1 µM inhibitor; read-out: Residual activity, %
Outline: as §1

MST3 = MST3 (Homo sapiens, UniProt Q9Y6E0); details: MST3, 1 µM inhibitor; read-out: Residual activity, %
Sequence of MST3 (Q9Y6E0 whole entry): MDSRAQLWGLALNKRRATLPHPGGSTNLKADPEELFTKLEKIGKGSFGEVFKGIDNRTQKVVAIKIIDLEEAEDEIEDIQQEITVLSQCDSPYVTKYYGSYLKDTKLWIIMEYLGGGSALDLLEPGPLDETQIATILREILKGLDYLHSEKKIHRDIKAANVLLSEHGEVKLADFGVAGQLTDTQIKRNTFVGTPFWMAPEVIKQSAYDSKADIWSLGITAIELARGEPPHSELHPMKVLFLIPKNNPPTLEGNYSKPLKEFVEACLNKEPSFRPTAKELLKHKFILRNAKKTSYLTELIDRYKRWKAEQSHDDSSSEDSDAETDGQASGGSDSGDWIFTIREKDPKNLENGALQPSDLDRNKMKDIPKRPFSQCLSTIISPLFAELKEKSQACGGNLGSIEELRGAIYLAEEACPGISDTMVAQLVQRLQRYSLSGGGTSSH
Outline: as §1

PDGFRA = PDGFRA (Homo sapiens, UniProt P16234); details: 1 µM inhibitor, read-out: Residual activity, %
Sequence of PDGFRA (P16234 24-1089): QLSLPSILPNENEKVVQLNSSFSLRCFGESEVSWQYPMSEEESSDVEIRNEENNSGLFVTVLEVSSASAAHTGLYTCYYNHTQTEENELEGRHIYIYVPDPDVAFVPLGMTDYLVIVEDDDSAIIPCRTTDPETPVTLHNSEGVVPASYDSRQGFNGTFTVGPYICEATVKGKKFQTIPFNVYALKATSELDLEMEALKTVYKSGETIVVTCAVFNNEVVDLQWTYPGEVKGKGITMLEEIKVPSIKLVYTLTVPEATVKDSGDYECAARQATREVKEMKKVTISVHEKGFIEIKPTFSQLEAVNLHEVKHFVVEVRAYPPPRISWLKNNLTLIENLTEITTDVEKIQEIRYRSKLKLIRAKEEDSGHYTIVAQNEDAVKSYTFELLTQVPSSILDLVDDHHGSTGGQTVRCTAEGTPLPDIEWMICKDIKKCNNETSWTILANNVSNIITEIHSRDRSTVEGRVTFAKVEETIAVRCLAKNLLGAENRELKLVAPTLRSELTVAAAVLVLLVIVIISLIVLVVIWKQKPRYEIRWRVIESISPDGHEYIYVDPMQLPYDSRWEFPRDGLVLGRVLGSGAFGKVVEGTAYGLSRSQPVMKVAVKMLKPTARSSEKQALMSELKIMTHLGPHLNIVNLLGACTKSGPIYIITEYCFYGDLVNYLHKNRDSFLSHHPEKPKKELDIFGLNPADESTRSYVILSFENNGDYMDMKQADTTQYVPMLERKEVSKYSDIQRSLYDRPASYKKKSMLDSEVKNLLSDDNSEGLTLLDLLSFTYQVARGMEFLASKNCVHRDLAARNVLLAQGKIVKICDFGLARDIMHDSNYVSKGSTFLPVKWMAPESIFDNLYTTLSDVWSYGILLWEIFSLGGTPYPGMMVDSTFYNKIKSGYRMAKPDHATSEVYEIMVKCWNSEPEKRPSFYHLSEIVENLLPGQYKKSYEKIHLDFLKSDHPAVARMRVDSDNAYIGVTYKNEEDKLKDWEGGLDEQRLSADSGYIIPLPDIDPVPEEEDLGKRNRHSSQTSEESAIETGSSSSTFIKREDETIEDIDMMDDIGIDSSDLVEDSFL
Outline: as §1

PKC = PKC (Homo sapiens, UniProt P17252); details: first of two PKC lines (Greek letter lost), 1 µM inhibitor, read-out: Residual activity, %
Outline: as §1

PKD1 = target: T2, PKD1 (Homo sapiens, UniProt Q15139); details: PKD1, 1 µM inhibitor; read-out: Residual activity, %
T2 sequence (Q15139 1-912): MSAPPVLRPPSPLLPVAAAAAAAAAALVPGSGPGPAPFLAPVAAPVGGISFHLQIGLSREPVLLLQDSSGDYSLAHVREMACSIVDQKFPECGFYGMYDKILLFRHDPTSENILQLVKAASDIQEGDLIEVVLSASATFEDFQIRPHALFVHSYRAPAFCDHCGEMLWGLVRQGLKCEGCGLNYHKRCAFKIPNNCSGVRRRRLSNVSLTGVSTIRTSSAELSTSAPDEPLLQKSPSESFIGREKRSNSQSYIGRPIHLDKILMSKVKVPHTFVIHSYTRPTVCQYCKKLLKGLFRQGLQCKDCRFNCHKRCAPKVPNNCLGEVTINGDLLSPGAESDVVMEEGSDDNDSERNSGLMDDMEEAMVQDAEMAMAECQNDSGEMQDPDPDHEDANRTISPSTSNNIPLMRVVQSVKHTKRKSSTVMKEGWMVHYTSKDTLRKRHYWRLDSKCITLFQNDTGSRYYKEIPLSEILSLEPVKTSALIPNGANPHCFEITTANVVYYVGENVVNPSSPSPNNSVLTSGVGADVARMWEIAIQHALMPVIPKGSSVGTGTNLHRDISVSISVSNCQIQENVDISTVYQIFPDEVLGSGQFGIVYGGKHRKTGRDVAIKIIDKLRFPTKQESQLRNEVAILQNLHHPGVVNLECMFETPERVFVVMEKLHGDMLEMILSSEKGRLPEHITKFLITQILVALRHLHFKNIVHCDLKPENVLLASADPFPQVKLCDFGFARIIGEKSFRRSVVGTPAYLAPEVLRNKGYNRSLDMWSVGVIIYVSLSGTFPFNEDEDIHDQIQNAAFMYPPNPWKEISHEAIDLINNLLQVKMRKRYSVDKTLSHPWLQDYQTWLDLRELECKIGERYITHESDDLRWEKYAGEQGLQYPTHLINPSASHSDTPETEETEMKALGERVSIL
Outline: as §1

SRPK1 = SRPK1 (Homo sapiens, UniProt Q96SB4); details: SRPK1, 1 µM inhibitor; read-out: Residual activity, %
Outline: as §1

YES1 = YES1 (Homo sapiens, UniProt P07947); details: YES1, 1 µM inhibitor; read-out: Residual activity, %
Sequence of YES1 (P07947 whole entry): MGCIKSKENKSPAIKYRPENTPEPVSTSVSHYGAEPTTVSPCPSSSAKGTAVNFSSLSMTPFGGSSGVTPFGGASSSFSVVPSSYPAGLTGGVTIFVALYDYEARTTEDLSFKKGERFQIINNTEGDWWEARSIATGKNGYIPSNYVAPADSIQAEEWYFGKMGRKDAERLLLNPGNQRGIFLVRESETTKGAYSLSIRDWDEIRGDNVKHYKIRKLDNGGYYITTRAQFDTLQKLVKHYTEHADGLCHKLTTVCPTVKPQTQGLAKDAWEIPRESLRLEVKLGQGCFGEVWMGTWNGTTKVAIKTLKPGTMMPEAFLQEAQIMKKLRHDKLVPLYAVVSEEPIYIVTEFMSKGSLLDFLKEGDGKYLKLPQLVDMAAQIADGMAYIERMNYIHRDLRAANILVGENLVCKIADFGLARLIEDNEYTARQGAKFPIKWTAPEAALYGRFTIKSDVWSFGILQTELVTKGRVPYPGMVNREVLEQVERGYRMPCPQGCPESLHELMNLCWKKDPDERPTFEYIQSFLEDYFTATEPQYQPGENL
Outline: as §1

Compound: N=C(N)NCCC[C@@H](NC(=O)CCCCCNC(=O)Cn1cnc2c(I)c(I)c(I)c(I)c21)C(=O)N[C@H](CCCNC(=N)N)C(=O)N[C@H](CCCNC(=N)N)C(=O)N[C@H](CCCNC(=N)N)C(=O)N[C@H](CCCNC(=N)N)C(=O)N[C@H](CCCNC(=N)N)C(=O)N[C@H](CCCCN)C(N)=O [ARC-3125, TIBI-CH2-C(=O)-Ahx-(D-Arg)6-D-Lys-NH2]
- remaining activity at 1 µM (Aurora B): 100 ± 4%
- remaining activity at 1 µM (CAMKKb): 47 ± 1%
- remaining activity at 1 µM (CK2): 30 ± 2%
- remaining activity at 1 µM (EPH-A4): 97 ± 4%
- remaining activity at 1 µM (ERK8): 18 ± 9%
- remaining activity at 1 µM (HIPK3): 21%
- remaining activity at 1 µM (MARK3): 72 ± 1%
- remaining activity at 1 µM (MLK3): 98 ± 2%
- remaining activity at 1 µM (MSK1): 6 ± 8%
- remaining activity at 1 µM (MST3): 51 ± 24%
- remaining activity at 1 µM (PDGFRA): 97%
- remaining activity at 1 µM (PKC): 81 ± 9%
- remaining activity at 1 µM (PKD1): 18 ± 4%
- remaining activity at 1 µM (SRPK1): 54 ± 1%
- remaining activity at 1 µM (YES1): 104 ± 8%

Compound: N=C(N)NCCC[C@@H](NC(=O)CCCCCNCc1nc2c(sc3cc(Br)cnc32)c(=O)[nH]1)C(=O)N[C@H](CCCNC(=N)N)C(=O)N[C@H](CCCNC(=N)N)C(=O)N[C@H](CCCNC(=N)N)C(=O)N[C@H](CCCNC(=N)N)C(=O)N[C@H](CCCNC(=N)N)C(=O)N[C@H](CCCCN)C(N)=O [ARC-3126, BPTP-Ahx-(D-Arg)6-D-Lys-NH2] (X3-[dR][dR][dR][dR][dR][dR][dK]-NH2)
- remaining activity at 1 µM (Aurora B): 114 ± 20%
- remaining activity at 1 µM (CAMKKb): 104 ± 13%
- remaining activity at 1 µM (CK2): 8 ± 3%
- remaining activity at 1 µM (EPH-A4): 107 ± 13%
- remaining activity at 1 µM (ERK8): 49 ± 30%
- remaining activity at 1 µM (HIPK3): 93 ± 2%
- remaining activity at 1 µM (MARK3): 112 ± 17%
- remaining activity at 1 µM (MLK3): 117 ± 10%
- remaining activity at 1 µM (MSK1): 29 ± 1%
- remaining activity at 1 µM (MST3): 102 ± 5%
- remaining activity at 1 µM (PDGFRA): 116 ± 3%
- remaining activity at 1 µM (PKC): 115 ± 17%
- remaining activity at 1 µM (PKD1): 111 ± 10%
- remaining activity at 1 µM (SRPK1): 89 ± 5%
- remaining activity at 1 µM (YES1): 98 ± 12%

Compound: N=C(N)NCCC[C@@H](NC(=O)CNC(=O)[C@@H](CCCNC(=N)N)NC(=O)[C@@H](CCCNC(=N)N)NC(=O)CCCCCCCNCc1nc2c(sc3cc(Br)cnc32)c(=O)[nH]1)C(=O)N[C@H](CCCCN)C(N)=O [Compound 1, BPTP-Aoc-(D-Arg)2-Gly-D-Arg-D-Lys-NH2]
- remaining activity at 1 µM (Aurora B): 102 ± 19%
- remaining activity at 1 µM (CAMKKb): 117 ± 1%
- remaining activity at 1 µM (CK2): 77 ± 9%
- remaining activity at 1 µM (EPH-A4): 97 ± 2%
- remaining activity at 1 µM (ERK8): 109 ± 8%
- remaining activity at 1 µM (HIPK3): 116 ± 15%
- remaining activity at 1 µM (MARK3): 100 ± 6%
- remaining activity at 1 µM (MLK3): 105 ± 5%
- remaining activity at 1 µM (MSK1): 106 ± 13%
- remaining activity at 1 µM (MST3): 104 ± 3%
- remaining activity at 1 µM (PDGFRA): 115 ± 2%
- remaining activity at 1 µM (PKC): 112 ± 2%
- remaining activity at 1 µM (PKD1): 128 ± 13%
- remaining activity at 1 µM (SRPK1): 102 ± 1%
- remaining activity at 1 µM (YES1): 110%

Compound: N=C(N)NCCC[C@@H](NC(=O)CNC(=O)[C@@H](CCCNC(=N)N)NC(=O)[C@@H](CCCNC(=N)N)NC(=O)CCCCCCCNCc1nc2c(sc3ccc(Br)cc32)c(=O)[nH]1)C(=O)N[C@H](CCCCN)C(N)=O [Compound 2, BBTP-Aoc-(D-Arg)2-Gly-D-Arg-D-Lys-NH2]
- remaining activity at 1 µM (Aurora B): 98 ± 2%
- remaining activity at 1 µM (CAMKKb): 108 ± 1%
- remaining activity at 1 µM (CK2): 63 ± 12%
- remaining activity at 1 µM (EPH-A4): 103 ± 16%
- remaining activity at 1 µM (ERK8): 78 ± 17%
- remaining activity at 1 µM (HIPK3): 72 ± 12%
- remaining activity at 1 µM (MARK3): 102 ± 7%
- remaining activity at 1 µM (MLK3): 107 ± 1%
- remaining activity at 1 µM (MSK1): 53 ± 4%
- remaining activity at 1 µM (MST3): 112 ± 8%
- remaining activity at 1 µM (PDGFRA): 101 ± 16%
- remaining activity at 1 µM (PKC): 102 ± 4%
- remaining activity at 1 µM (PKD1): 134 ± 14%
- remaining activity at 1 µM (SRPK1): 113 ± 7%
- remaining activity at 1 µM (YES1): 104 ± 12%

Compound: N=C(N)NCCC[C@@H](NC(=O)CNC(=O)[C@@H](CCCNC(=N)N)NC(=O)[C@@H](CCCNC(=N)N)NC(=O)Cn1cc(CNCc2nc3c(sc4ccc(Br)cc43)c(=O)[nH]2)nn1)C(=O)N[C@H](CCCCN)C(N)=O [Compound 3, BBTP-Amt-(D-Arg)2-Gly-D-Arg-D-Lys-NH2]
- remaining activity at 1 µM (Aurora B): 111 ± 1%
- remaining activity at 1 µM (CAMKKb): 85 ± 4%
- remaining activity at 1 µM (CK2): 57 ± 7%
- remaining activity at 1 µM (EPH-A4): 95 ± 5%
- remaining activity at 1 µM (ERK8): 83 ± 2%
- remaining activity at 1 µM (HIPK3): 57 ± 7%
- remaining activity at 1 µM (MARK3): 100 ± 8%
- remaining activity at 1 µM (MLK3): 94 ± 2%
- remaining activity at 1 µM (MSK1): 90 ± 2%
- remaining activity at 1 µM (MST3): 98 ± 1%
- remaining activity at 1 µM (PDGFRA): 108 ± 4%
- remaining activity at 1 µM (PKC): 110 ± 5%
- remaining activity at 1 µM (PKD1): 82 ± 3%
- remaining activity at 1 µM (SRPK1): 91 ± 2%
- remaining activity at 1 µM (YES1): 124 ± 1%
